Experimental findings from paper PMC10663602 are described below.

Experiment [1] deals with hFcα-tFcµ-chi1 (human | Oncorhynchus mykiss (rainbow trout)). Put plainly: SEC; preparative SEC (Superose 6 Increase 10/300) after Ni-NTA; share of pIg and mIg in the total protein purified (Supplementary Fig. 6).
In experiment [2] the target is hFcα-tFcµ-chi2 (human | Oncorhynchus mykiss (rainbow trout)). The experiment is described as above.

B1: hFcα-tFcµ-chi1 (protein)
chain: CHPRLSLHRPALEDLLLGSEANLTCTLTGLRDASGVTFTWTPSSGKSAVQGPPERDLCGCYSVSSVLPGCAEPWNHGKTFTCTAAYPESKTPLTATLSKSGNTFRPEVHLLPPPSEELALNELVTLTCLARGFSPKDVLVRWLQGSQELPREKYLTWASRQEPSQGTTTFAVTSILRVAAEDWKKGDTFSCMVGHEALPLAFTNIIMRTIDRTSNQPNLVNLSLNVPQRCMAQ
modifications: here or on the partner: N-glycosylated; polymeric, about a dimer by SEC-MALS. Table prints the same sequence for chi1 and chi2 / N-glycosylated; polymeric, about a dimer by SEC-MALS. Table prints the same sequence for chi1 a
In the case of B1, the percent of the total protein purified that is pIg in experiment [1] is < 30%.

B2: hFcα-tFcµ-chi2 (protein)
chain: CHPRLSLHRPALEDLLLGSEANLTCTLTGLRDASGVTFTWTPSSGKSAVQGPPERDLCGCYSVSSVLPGCAEPWNHGKTFTCTAAYPESKTPLTATLSKSGNTFRPEVHLLPPPSEELALNELVTLTCLARGFSPKDVLVRWLQGSQELPREKYLTWASRQEPSQGTTTFAVTSILRVAAEDWKKGDTFSCMVGHEALPLAFTNIIMRTIDRTSNQPNLVNLSLNVPQRCMAQ
modifications: here or on the partner: N-glycosylated; P1 about a tetramer, P2 monomer. Table prints the same sequence for chi1 and chi2 / N-glycosylated; P1 about a tetramer, P2 monomer. Table prints the same sequence for chi1 and chi2
For B2, the percent of the total protein purified that is pIg in experiment [2] is < 30%.
